Data from PMC9352680, “A comprehensive thermodynamic model for RNA binding by the Saccharomyces cerevisiae Pumilio protein PUF4”.
Residue numbers refer to the chain shown, from its start. In names and notes the source's numbering stands.

T1: PUF4 RNA-binding domain (Saccharomyces cerevisiae, UniProt P25339 537-888)
T1 sequence: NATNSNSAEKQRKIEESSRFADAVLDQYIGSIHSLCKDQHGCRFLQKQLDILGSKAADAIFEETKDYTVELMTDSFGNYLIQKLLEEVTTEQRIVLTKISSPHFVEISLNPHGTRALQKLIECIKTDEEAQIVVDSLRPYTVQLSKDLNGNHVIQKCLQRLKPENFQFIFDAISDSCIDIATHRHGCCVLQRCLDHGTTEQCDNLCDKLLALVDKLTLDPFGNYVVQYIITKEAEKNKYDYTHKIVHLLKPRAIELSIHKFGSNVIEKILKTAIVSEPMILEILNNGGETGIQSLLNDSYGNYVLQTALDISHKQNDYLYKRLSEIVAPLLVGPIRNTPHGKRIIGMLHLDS

B1: Ic_S4_P5E.1_K5.1_C5.1_H5.1_A5.1_[T6A]_[A7T]_F5.1_[T9C]_[A10C]_T5.1 (ssRNA)
RNA: UUUGACAACUGAUCGUUCUUUCUUGUAUAUUCCUUCUUUCUCGAUCAGUUGUCUUU
B2: Ic_S4_P5E.1_K5.1_C5.1_H5.1_A5.1_[T6A]_[A7T]_F5.1_[T8A]_[T9A]_[A10T]_T5.1 (ssRNA)
RNA: B1 RNA with U31A, C32A, C33U
B3: Ic_S4_P5E.1_K5.1_C5.1_H5.1_A5.1_[T5G]_[T6C]_F5.1_[T8G]_[A10C]_T5.1 (ssRNA)
RNA: B1 RNA with U28G, A29C, U30A, U31G, C32U
B4: Ic_S4_P5E.1_K5.1_C5.1_H5.1_A5.1_[T5C]_[T6A]_F5.1_[T8A]_[A10C]_T5.1 (ssRNA)
RNA: B1 RNA with U28C, U30A, U31A, C32U
B5: Ic_S4_P5E.1_K5.1_C5.1_H5.1_A5.1_[T5C]_[T6C]_[A7T]_F5.1_[T9A]_[A10G]_T5.1 (ssRNA)
RNA: B1 RNA with U28C, A29C, C32A, C33G
B6: Ic_S4_P5E.1_K5.1_C5.1_H5.1_A5.1_[T5G]_[T6C]_[A7T]_F5.1_[T9A]_[A10C]_T5.1 (ssRNA)
RNA: B1 RNA with U28G, A29C, C32A
B7: Ic_S4_P5E.1_K5.1_C5.1_H5.1_A5.1_[T6A]_[A7T]_F5.1_[T8A]_[T9C]_[A10G]_T5.1 (ssRNA)
RNA: B1 RNA with U31A, C33G
B8: Ic_S4_P5E.1_K5.1_C5.1_H5.1_A5.1_[T5A]_[T6C]_[A7T]_F5.1_[T8A]_[T9A]_T5.1 (ssRNA)
RNA: B1 RNA with U28A, A29C, U31A, C32A, C33A
B9: Ic_S4_P5E.1_K5.1_C5.1_H5.1_A5.1_[T5C]_[T6A]_F5.1_[T9G]_[A10G]_T5.1 (ssRNA)
RNA: B1 RNA with U28C, U30A, C32G, C33G
B10: Ic_S4_P5E.1_K5.1_C5.1_H5.1_A5.1_[T5A]_[A7C]_F5.1_[T8A]_[A10C]_T5.1 (ssRNA)
RNA: B1 RNA with U28A, A29U, U30C, U31A, C32U
B11: Ic_S4_P5E.1_K5.1_C5.1_H5.1_A5.1_[T5C]_[T6C]_[A7T]_F5.1_[T8A]_[T9G]_[A10C]_T5.1 (ssRNA)
RNA: B1 RNA with U28C, A29C, U31A, C32G
B12: Ic_S4_P5E.1_K5.1_C5.1_H5.1_A5.1_[A7C]_F5.1_[T9G]_[A10G]_T5.1 (ssRNA)
RNA: B1 RNA with A29U, U30C, C32G, C33G
B13: Ic_S4_P5E.1_K5.1_C5.1_H5.1_A5.1_[T5G]_[A7T]_F5.1_[T8C]_[A10T]_T5.1 (ssRNA)
RNA: B1 RNA with U28G, A29U, U31C, C32U, C33U
B14: Ic_S4_P5E.1_K5.1_C5.1_H5.1_A5.1_[T5C]_[T6A]_[A7T]_F5.1_[T8A]_[T9G]_[A10T]_T5.1 (ssRNA)
RNA: B1 RNA with U28C, U31A, C32G, C33U
B15: Ic_S4_P5E.1_K5.1_C5.1_H5.1_A5.1_[T5G]_[T6C]_[A7T]_F5.1_[T8C]_T5.1 (ssRNA)
RNA: B1 RNA with U28G, A29C, U31C, C32U, C33A
B16: Ic_S4_P5E.1_K5.1_C5.1_H5.1_A5.1_[T5A]_[T6A]_[A7T]_F5.1_[T8A]_[T9C]_[A10G]_T5.1 (ssRNA)
RNA: B1 RNA with U28A, U31A, C33G
B17: Ic_S4_P5E.1_K5.1_C5.1_H5.1_A5.1_[T5A]_[A7G]_F5.1_[T8G]_[A10C]_T5.1 (ssRNA)
RNA: B1 RNA with U28A, A29U, U30G, U31G, C32U
B18: Ic_S4_P5E.1_K5.1_C5.1_H5.1_A5.1_[T6C]_F5.1_[T8G]_[A10C]_T5.1 (ssRNA)
RNA: B1 RNA with A29C, U30A, U31G, C32U
B19: Ic_S4_P5E.1_K5.1_C5.1_H5.1_A5.1_[T6A]_[A7T]_F5.1_[T8C]_[T9G]_[A10G]_T5.1 (ssRNA)
RNA: B1 RNA with U31C, C32G, C33G
B20: Ic_S4_P5E.1_K5.1_C5.1_H5.1_A5.1_[T5A]_[T6C]_[A7C]_F5.1_[A10T]_T5.1 (ssRNA)
RNA: B1 RNA with U28A, A29C, U30C, C32U, C33U
B21: Ic_S4_P5E.1_K5.1_C5.1_H5.1_A5.1_[T5A]_[T6C]_F5.1_[T8G]_[T9C]_[A10T]_T5.1 (ssRNA)
RNA: B1 RNA with U28A, A29C, U30A, U31G, C33U
B22: Ic_S4_P5E.1_K5.1_C5.1_H5.1_A5.1_[T6G]_[A7T]_F5.1_[T8A]_[T9A]_T5.1 (ssRNA)
RNA: B1 RNA with A29G, U31A, C32A, C33A
B23: Ic_S4_P5E.1_K5.1_C5.1_H5.1_A5.1_[T5A]_[T6C]_[A7T]_F5.1_[T8A]_[A10C]_T5.1 (ssRNA)
RNA: B1 RNA with U28A, A29C, U31A, C32U
B24: Ic_S4_P5E.1_K5.1_C5.1_H5.1_A5.1_[A7C]_F5.1_[T8G]_[A10T]_T5.1 (ssRNA)
RNA: B1 RNA with A29U, U30C, U31G, C32U, C33U
B25: Ic_S4_P5E.1_K5.1_C5.1_H5.1_A5.1_[T5C]_[T6A]_[A7G]_F5.1_[A10G]_T5.1 (ssRNA)
RNA: B1 RNA with U28C, U30G, C32U, C33G
B26: Ic_S4_P5E.1_K5.1_C5.1_H5.1_A5.1_[T6C]_[A7C]_F5.1_[T8A]_[T9G]_[A10C]_T5.1 (ssRNA)
RNA: B1 RNA with A29C, U30C, U31A, C32G
B27: Ic_S4_P5E.1_K5.1_C5.1_H5.1_A5.1_[A7T]_F5.1_[T8A]_[T9A]_T5.1 (ssRNA)
RNA: B1 RNA with A29U, U31A, C32A, C33A
B28: Ic_S4_P5E.1_K5.1_C5.1_H5.1_A5.1_[T5A]_[T6C]_[A7T]_F5.1_[T8C]_[T9C]_[A10C]_T5.1 (ssRNA)
RNA: B1 RNA with U28A, A29C, U31C

Biological target: T1, PUF4 RNA-binding domain
Assay: Mg; RNA-MaP; 20 mM Na-HEPES pH 7.4, 30 mM KOAc, 0.75 mM MgCl2, 0.1% Tween-20, 5% glycerol, 0.1 mg/mL BSA, 2 mM DTT; 25 C; 0.0125-409.6 nM protein
Details: tags: N-His6-TEV cleaved; C-SNAP kept, Cy3B-labelled; label: tethered on chip by stalled RNA polymerase

Binder	Kd
UCUCUUUGUAUACUGUCUCUU (ssRNA) [Ib_S1_P4E.1_K4.1_C4.1_H4.1_A4.1_[T7C]_F4.1_[A9G]_T4.1]	5.39 nM
B1	3.74 nM
B2	2.4 nM
B3	976 nM
B4	26.1 nM
B5	3.61 nM
B6	24.4 nM
B7	6.59 nM
B8	233 nM
B9	16.9 nM
B10	432 nM
B11	74.3 nM
B12	27.2 nM
B13	91.8 nM
B14	5 nM
B15	10.1 nM
B16	50.2 nM
B17	1350 nM
B18	342 nM
B19	72.8 nM
B20	18 nM
B21	662 nM
B22	55.6 nM
B23	156 nM
B24	59.5 nM
B25	27.4 nM
B26	1010 nM
B27	38.9 nM
B28	198 nM
